In assay [1] the target is β-clamp (Escherichia coli, UniProt P0A988). An excerpt: Protein–protein interactions between RecB and β-clamp, as well as between RecB and RecA, were examined using the bacterial adenylate cyclase-based two-hybrid (BACTH) system (Euromedex), as previously described, with optimizations noted below. This system relies on the functional reconstitution of Bordetella pertussis adenylate cyclase (CyaA) fragments T25 and T18, which are genetically fused to the proteins of interest. Upon interaction of the fusion partners, cAMP production is restored in the cyaA-deficient E. coli BTH101 strain, activating downstream reporters such as lacZ and mal operons. Co-transformants were tested using one or several of the following readouts: (i) qualitative X-gal spot assay, (ii) quantitative β-galactosidase assay, and (iii) semi-quantitative growth in M63 minimal medium with maltose.
Recipient strains (BTH101 or derivatives) were streaked from glycerol stock onto LB agar plates containing streptomycin (100 µg/ml), isopropyl β-D-1-thiogalactopyranoside (IPTG) (0.5 mM), and 5-bromo-4-chloro-3-indolyl β-D-galactopyranoside (X-gal) (40 µg/ml) and incubated at 37°C until cya⁺ (blue) revertants became visible among the cya⁻ (white) colonies. Multiple white colonies were picked and cultured overnight in LB with streptomycin (100 µg/ml) at 37°C. These cultures were diluted 1:50 and expanded before electroporation.
Transformed cells were immediately recovered in 1 ml SOC at 37°C for 1.5 h with shaking and plated on LB agar supplemented with appropriate antibiotics (Table 4). Plates were incubated at 30°C for up to 3 days.
Following selection, 3–5 colonies from each transformation plate were pooled to inoculate 1 ml LB containing IPTG (0.5 mM) and the appropriate antibiotics. Cultures were incubated overnight at 30°C with shaking. The same overnight culture was used to seed all subsequent assays. The following day, cultures were diluted 1:100 into fresh LB (containing IPTG and antibiotics) and grown at 30°C to mid-exponential phase (OD600 around 0.5–0.6, measured by Nanodrop One, Thermo Fisher Scientific Inc.) before use in assays.
The X-gal spot assay was used to visualize protein−protein interactions via blue/white colorimetric readout. Mid-log cultures were serially diluted (10-fold series), and 5 µl of each dilution (including undiluted) was spotted onto LB agar containing IPTG (0.5 mM), X-gal (40 µg/ml), and selective antibiotics. To assess interaction stability under genotoxic stress, an identical plate was exposed to UV light (15 J/m^2). Plates were incubated at 30°C for 2–3 days, and images were captured with a smartphone camera.
β-galactosidase activity was quantified using a modified Miller assay adapted for 96-well format. Cultures at OD600 around 0.5–0.6 were measured again in a plate reader (Victor Nivo, PerkinElmer, Waltham, MA, USA) to account for instrument variability. Cells were pelleted, resuspended in PM2 buffer (70 mM Na2HPO4, 30 mM NaH2PO4, 1 mM MgSO4, 0.2 mM MnSO4, and 100 mM β-mercaptoethanol), and permeabilized with 0.01% (w/v) sodium dodecyl sulfate (SDS) and 10% (v/v) toluene for 45 min at 37°C. […] Absorbance at 405 nm was recorded, and β-galactosidase activity calculated in Miller Units using the following equation: […]
This assay exploits the cAMP dependence of the mal regulon, allowing only cya^+ cells with interacting fusion proteins to grow on maltose as sole carbon source. […] Cultures were incubated in triplicate at 30°C with shaking, and OD600 was measured at 24, 48, and 72 h using a plate reader. […]

Assay [2] deals with E. coli BTH101 ∆recB strain (IMR04). In words: UV survival assay (complementation of BTH101 ΔrecB). Format: cell-based, Escherichia coli. The settings on record: expressed from pUT18C in BTH101 ΔrecB; UV 5, 15 or 30 J/m^2; CFU; 2 to 3 biological replicates. On the procedure: Non-transformed BTH101 and BTH101 ∆recB served as positive and negative controls, respectively. All strains were cultured at 30°C to early exponential phase (OD600 around 0.2, measured by Nanodrop One) before treatment.
For UV exposure, bacterial cultures were serially diluted 10-fold in LB. From each dilution, 5 µl was spotted onto four separate LB agar plates supplemented with IPTG (0.5 mM) and the appropriate antibiotics. Once droplets had dried, one plate was kept unexposed as a control, while the remaining three plates were subjected to UV irradiation at doses of 5, 15, or 30 J/m^2 using an CL-1000 ultraviolet crosslinker (UVP). Plates were incubated overnight at 30°C, after which colony-forming units (CFUs) were counted. Survival at each UV dose was calculated as the ratio of CFUs on the UV-exposed plates to CFUs on the unexposed control plate.

In assay [3] the test system is BTH101 ΔrecB cells. In words: Western blot of RecB expression level. More on the design: species or system Escherichia coli. The following applies: pUT18C constructs in BTH101 ΔrecB; Ponceau S normalized; relative to BTH101 wild type.
Procedure: Samples, including purified RecB, β-clamp (purified as previously explained for co-immunoprecipitation), input (10 µg; 0.5%), and pull-down eluates, and samples from BTH101 cultures used in survival assays, were mixed with 1 mM dithiothreitol (DTT) and 1× NuPAGE LDS sample buffer, then heated to 75°C for 10 min. […] SeeBlue Plus2 Pre-stained Protein Standard (Invitrogen) was used as a molecular weight marker.
Proteins were transferred onto 0.2-µm nitrocellulose membranes using the Trans-Blot Turbo Transfer System (Bio-Rad), and membranes were blocked in 5% (w/v) skim milk (Merck) in PBS-T (PBS with 0.1% Tween-20) for 45–60 min at room temperature. […] Following protein transfer, these membranes were also incubated in 0.1% (w/v) Ponceau S solution for 5 min to verify transfer efficiency and account for total protein loading. The stain was visualized, imaged for densitometric normalization, and subsequently removed by washing with deionized water prior to blocking. […]
Relative RecB levels were quantified from the western blot images using Fiji (ImageJ) [58]. […] The lane profiles were plotted, and the measured signal from each lane was first normalized to the relevant Ponceau stain signal from the same lane and then to the wild-type strain.

Like-named read-outs stand apart in the source and are kept apart here.

Sequence of β-clamp (P0A988 whole entry, the tested form may be a part): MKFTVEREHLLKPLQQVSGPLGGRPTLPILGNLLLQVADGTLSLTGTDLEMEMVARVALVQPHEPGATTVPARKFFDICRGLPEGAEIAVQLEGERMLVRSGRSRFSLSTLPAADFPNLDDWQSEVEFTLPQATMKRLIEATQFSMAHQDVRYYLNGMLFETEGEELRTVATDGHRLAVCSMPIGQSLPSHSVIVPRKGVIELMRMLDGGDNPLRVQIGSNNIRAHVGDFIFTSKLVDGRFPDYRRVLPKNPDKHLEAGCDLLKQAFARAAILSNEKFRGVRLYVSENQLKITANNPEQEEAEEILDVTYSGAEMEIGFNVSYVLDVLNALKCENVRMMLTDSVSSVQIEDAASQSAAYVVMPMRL

B1: RecB: wild type RecB subunit of the E. coli RecBCD complex (T18 fusion, his-tagged or HaloTag according to test) (protein)
chain: MSDVAETLDPLRLPLQGERLIEASAGTGKTFTIAALYLRLLLGLGGSAAFPRPLTVEELLVVTFTEAATAELRGRIRSNIHELRIACLRETTDNPLYERLLEEIDDKAQAAQWLLLAERQMDEAAVFTIHGFCQRMLNLNAFESGMLFEQQLIEDESLLRYQACADFWRRHCYPLPREIAQVVFETWKGPQALLRDINRYLQGEAPVIKAPPPDDETLASRHAQIVARIDTVKQQWRDAVGELDALIESSGIDRRKFNRSNQAKWIDKISAWAEEETNSYQLPESLEKFSQRFLEDRTKAGGETPRHPLFEAIDQLLAEPLSIRDLVITRALAEIRETVAREKRRRGELGFDDMLSRLDSALRSESGEVLAAAIRTRFPVAMIDEFQDTDPQQYRIFRRIWHHQPETALLLIGDPKQAIYAFRGADIFTYMKARSEVHAHYTLDTNWRSAPGMVNSVNKLFSQTDDAFMFREIPFIPVKSAGKNQALRFVFKGETQPAMKMWLMEGESCGVGDYQSTMAQVCAAQIRDWLQAGQRGEALLMNGDDARPVRASDISVLVRSRQEAAQVRDALTLLEIPSVYLSNRDSVFETLEAQEMLWLLQAVMTPERENTLRSALATSMMGLNALDIETLNNDEHAWDVVVEEFDGYRQIWRKRGVMPMLRALMSARNIAENLLATAGGERRLTDILHISELLQEAGTQLESEHALVRWLSQHILEPDSNASSQQMRLESDKHLVQIVTIHKSKGLEYPLVWLPFITNFRVQEQAFYHDRHSFEAVLDLNAAPESVDLAEAERLAEDLRLLYVALTRSVWHCSLGVAPLVRRRGDKKGDTDVHQSALGRLLQKGEPQDAAGLRTCIEALCDDDIAWQTAQTGDNQPWQVNDVSTAELNAKTLQRLPGDNWRVTSYSGLQQRGHGIAQDLMPRLDVDAAGVASVVEEPTLTPHQFPRGASPGTFLHSLFEDLDFTQPVDPNWVREKLELGGFESQWEPVLTEWITAVLQAPLNETGVSLSQLSARNKQVEMEFYLPISEPLIASQLDTLIRQFDPLSAGCPPLEFMQVRGMLKGFIDLVFRHEGRYYLLDYKSNWLGEDSSAYTQQAMAAAMQAHRYDLQYQLYTLALHRYLRHRIADYDYEHHFGGVIYLFLRGVDKEHPQQGIYTTRPNAGLIALMDEMFAGMTLEEA
modifications: left off: T18 (Bordetella pertussis CyaA fragment), N-terminal, kept
As for B1, in assay [1], the “interaction strength relative to RecB–RecC positive control” value is reported as “comparable to the RecB–RecC positive control interaction”. The “interaction with β-clamp, β-galactosidase activity” value was “abolished” in assay [1]; “distinct interaction” in assay [1] (BTH101 wild-type and ΔrecB backgrounds, 24 h, relative to empty vector negative control); “initially appeared absent” in assay [1] (BTH101 ΔrecA). Further, in assay [1] (BTH101 ΔrecA, M63/maltose variant, longer incubation), the “interaction with β-clamp, M63/maltose growth” value is recorded as “the interaction was apparent also in the ΔrecA strain”. In addition, the “survival after UV” value in assay [2] is on record as “fully restores ΔrecB strain survival to the wild-type strain (BTH101) level”. Further, the “RecB expression level relative to endogenous RecB” value in assay [3] is reported as “more than eight times higher”.
